From article PMC7515730
Residue numbers refer to the chain shown, from its start.

T1: CSTF2 D50A RRM (Homo sapiens, UniProt P33240 1-107, D50A)
T1 sequence: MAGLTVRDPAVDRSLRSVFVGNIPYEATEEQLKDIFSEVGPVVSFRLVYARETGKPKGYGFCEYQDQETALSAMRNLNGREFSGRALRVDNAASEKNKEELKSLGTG

T2: CSTF2 (CstF-64) RRM wild type (Homo sapiens, UniProt P33240 1-107)
T2 sequence: T1 sequence with A50D


How the values were obtained:
CSTF2 D50A RRM [1] = target: T1, CSTF2 D50A RRM; assay: ITC
[2] = target: T2, CSTF2 (CstF-64) RRM wild type; assay: ITC
[3] = target: T2, CSTF2 (CstF-64) RRM wild type; assay: fluorescence polarization
CSTF2 D50A RRM [4] = target: T1, CSTF2 D50A RRM; assay: fluorescence polarization

Row | Binder | Kd (CSTF2 D50A RRM [1]) | Kd [2] | Kd [3] | Kd (CSTF2 D50A RRM [4])
1 | AUUUUAUGUUUCAGGU (ssRNA) [SVL RNA, unlabeled] | 698 ± 60 nM | 1520 ± 170 nM |  | 
2 | AUUUUAUGUUUCAGGU (ssRNA) [SVL RNA, 3'-fluorescein] |  |  | 1450 ± 70 nM | 
3 | GUGUGUGUGUGUGUGU (ssRNA) [(GU)8 RNA, 3'-fluorescein] |  |  | 260 ± 20 nM | 170 ± 10 nM
